Values belong to the binder of their own block, whether it stands above or below them. GalNAc = N-acetylgalactosamine
Tests used:
[1] = target: T1, MUC5AC glycopeptide H2N-GTTPSPVPT*TSTTSAP-OH (chart ID 10); assay: Tn glycopeptide microarray, Alexa Fluor 488 goat anti-human IgG
T1 peptide: H-GTTPSPVPT(GalNAc)TSTTSAP-OH
Description: (§1) The Tn glycopeptide microarray was prepared as previously described (25). The Consortium for Functional Glycomics (CFG) glycan microarray version 5.0 was used (www.functionalglycomics.org) (26). […] Slides were washed four times with TSM wash buffer 1 (20 mM Tris-HCl, pH 7.4, 150 mM NaCl, 2 mM CaCl₂), 2 mM MgCl2 and 0.05% Tween-20), and washed four times with TSM wash buffer 2 (20 mM Tris-HCl, pH 7.4, 150 mM NaCl, 2 mM CaCl2) and 2 mM MgCl2). Alexa Fluor® 488-labeled goat anti-human IgG or goat anti-mouse IgM secondary (diluted to 5 μg/ml) were used for detection. After washing as above, slides were washed once in water and dried before being read on a Genepix® 4300A microarray scanner (Molecular Devices). Images were analyzed with quantitation software (GenePix® Pro Microarray Analysis Software Ver. 7, Molecular Devices).

[2] = target: T2, EA2 glycopeptide Ac-PTTDSTT*PAPTTK-NH2 (chart ID 11); assay: as above
T2 peptide: Ac-PTTDSTT(GalNAc)PAPTTK-NH2
Description: as §1

[3] = target: T3, EA2-R peptide Ac-PTTDSTTPAPTTK-NH2 (chart ID 12); assay: as above
T3 peptide: Ac-PTTDSTTPAPTTK-NH2
Description: as §1

[4] = target: T4, a-Dystroglycan glycopeptide Ac-PPT*T*T*T*KKP-HN2 (chart ID 13); assay: as above
T4 peptide: Ac-PPT(GalNAc)T(GalNAc)T(GalNAc)T(GalNAc)KKP-NH2
Description: as §1

[5] = target: T5, MUC1-1 glycopeptide H2N-TSAPDT*RDAP-NH2 (chart ID 14); assay: as above
T5 peptide: H-TSAPDT(GalNAc)RDAP-NH2
Description: as §1

[6] = target: T6, MUC1-1R peptide H2N-TSAPDTRDAP-NH2 (chart ID 15); assay: as above
T6 peptide: H-TSAPDTRDAP-NH2
Description: as §1

[7] = target: T7, Peptide-4 H2N-KTTT-CONH2 (chart ID 21); assay: as above
T7 peptide: H-KTTT-NH2
Description: as §1

[8] = target: T8, Peptide-5 H2N-KTTTG-CONH2 (chart ID 22); assay: as above
T8 peptide: H-KTTTG-NH2
Description: as §1

[9] = target: T9, a-Dystroglycan peptide Ac-PPTTTTKKP-NH2 (chart ID 9); assay: as above
T9 peptide: Ac-PPTTTTKKP-NH2
Description: as §1

[10] = target: T10, Asialo-BSM (desialylated bovine submaxillary mucin) (bovine); assay: plate binding assay, Asialo-BSM coated on 96-well plate, serial dilution of antibody, fluorescent secondary antibody
T10 construct: also called desialylated BSM; Asialo-BSM beads

[11] = target: T4, a-Dystroglycan glycopeptide …; assay: Tn glycopeptide microarray, Alexa Fluor 488 goat anti-mouse IgM
Description: as §1

[12] = target: T5, MUC1-1 glycopeptide H2N-TSAPDT*RDAP-NH2 …; assay: as above
Description: as §1

[13] = target: T6, MUC1-1R peptide H2N-TSAPDTRDAP-NH2 …; assay: as above
Description: as §1

[14] = target: T7, Peptide-4 H2N-KTTT-CONH2 (chart ID 21); assay: as above
Description: as §1

[15] = target: T8, Peptide-5 H2N-KTTTG-CONH2 (chart ID 22); assay: as above
Description: as §1

[16] = target: T9, a-Dystroglycan peptide Ac-PPTTTTKKP-NH2 …; assay: as above
Description: as §1

[17] = target: T1, MUC5AC glycopeptide …; assay: as above
Description: as §1

[18] = target: T2, EA2 glycopeptide Ac-PTTDSTT*PAPTTK-NH2 …; assay: as above
Description: as §1

[19] = target: T3, EA2-R peptide Ac-PTTDSTTPAPTTK-NH2 …; assay: as above
Description: as §1

[20] = target: T11, A-MUC2 glycopeptide Ac-PT*TTPLK-NH2 (chart ID 1); assay: Tn glycopeptide microarray probed with biotinylated PNA and Alexa488-streptavidin
T11 peptide: Ac-PT(GalNAc)TTPLK-NH2

[21] = target: T12, B-MUC2 glycopeptide Ac-PTT*TPLK-NH2 (chart ID 2); assay: as above
T12 peptide: Ac-PTT(GalNAc)TPLK-NH2

[22] = target: T13, C-MUC2 glycopeptide Ac-PTTT*PLK-NH2 (chart ID 3); assay: as above
T13 peptide: Ac-PTTT(GalNAc)PLK-NH2

[23] = target: T14, D-MUC2 glycopeptide Ac-PT*T*TPLK-NH2 (chart ID 4); assay: as above
T14 peptide: Ac-PT(GalNAc)T(GalNAc)TPLK-NH2

[24] = target: T15, F-MUC2 glycopeptide Ac-PTT*T*PLK-NH2 (chart ID 6); assay: as above
T15 construct: also called double-Tn-MUC2; bar label T*T*
T15 peptide: Ac-PTT(GalNAc)T(GalNAc)PLK-NH2

Kd [10]: 829 nM
B1: Remab6, recombinant human chimeric IgG1 anti-Tn antibody (antibody)
heavy: not shown
light: QIVLTQSPAIMSSSPGEKVALSCSASSSVSYVYWYQQKPGSSPKPWIYRTSNLASGVPARFSGSGSGTSYSLTISSMEAEDAATYYCQQYHSYPFTFGSGTKLEIKRTVAAPSVFIFPPSDEQLKSGTASVVCLLNNFYPREAKVQWKVDNALQSGNSQESVTEQDSKDSTYSLSSTLTLSKADYEKHKVYACEVTHQGLSSPVTKSFNRGEC
notes: Mouse variable regions engineered from BaGs6 with human IgG1 and kappa constant regions; expressed in HEK293 Freestyle cells; also called Remab6-WT; hIgG1
binding result [1]: no binding (tested: 5 µg/ml (text paragraph 261))
binding result [2]: no binding (tested: 5 µg/ml (text paragraph 261))
binding result [3]: no binding (tested: 5 µg/ml (text paragraph 261))
binding result [4]: no binding (tested: 5 µg/ml (text paragraph 261))
binding result [5]: no binding (tested: 5 µg/ml (text paragraph 261))
binding result [6]: no binding (tested: 5 µg/ml (text paragraph 261))
binding result [7]: no binding (tested: 5 µg/ml (text paragraph 261))
binding result [8]: no binding (tested: 5 µg/ml (text paragraph 261))
binding result [9]: no binding (tested: 5 µg/ml (text paragraph 261))

Kd [10]: 54.3 nM
B2: ReBaGs6, recombinant murine IgM anti-Tn antibody (antibody)
heavy: DTMLQQSDAELVKPGASVKMSCKASGYTFTDHAIHWVKQKPEQGLEWIGYVSPGNGDIKYNEKFKGKATLSADKSSSTAYMQLNSLTSEDSAVYFCKRSYGSFDYWGQGTTLTVSSESQSFPNVFPLVSCESPLSDKNLVAMGCLARDFLPSTISFTWNYQNNTEVIQGIRTFPTLRTGGKYLATSQVLLSPKSILEGSDEYLVCKIHYGGKNRDLHVPIPAVAEMNPNVNVFVPPRDGFSGPAPRKSKLICEATNFTPKPITVSWLKDGKLVESGFTTDPVTIENKGSTPQTYKVISTLTISEIDWLNLNVYTCRVDHRGLTFLKNVSSTCAASPSTDILTFTIPPSFADIFLSKSANLTCLVSNLATYETLNISWASQSGEPLETKIKIMESHPNGTFSAKGVASVCVEDWNNRKEFVCTVTHRDLPSPQKKFISKPNEVHKHPPAVYLLPPAREQLNLRESATVTCLVKGFSPADISVQWLQRGQLLPQEKYVTSAPMPEPGAPGFYFTHSILTVTEEEWNSGETYTCVVGHEALPHLVTERTVDKSTGKPTLYNVSLIMSDTGGTCY
light: QIVLTQSPAIMSSSPGEKVALSCSASSSVSYVYWYQQKPGSSPKPWIYRTSNLASGVPARFSGSGSGTSYSLTISSMEAEDAATYYCQQYHSYPFTFGSGTKLEIKRADAAPTVSIFPPSSEQLTSGGASVVCFLNNFYPKDINVKWKIDGSERQNGVLNSWTDQDSKDSTYSMSSTLTLTKDEYERHNSYTCEATHKTSTSPIVKSFNRNEC
notes: Mouse IgM (mu heavy chain, kappa light chain); also called ReGs6; mIgM
binding result [11]: no binding (tested: 20 or 2 µg/ml (text paragraph 261))
binding result [12]: no binding (tested: 20 or 2 µg/ml (text paragraph 261))
binding result [13]: no binding (tested: 20 or 2 µg/ml (text paragraph 261))
binding result [14]: no binding (tested: 20 or 2 µg/ml (text paragraph 261))
binding result [15]: no binding (tested: 20 or 2 µg/ml (text paragraph 261))
binding result [16]: no binding (tested: 20 or 2 µg/ml (text paragraph 261))

B3: BaGs6, murine IgM anti-Tn monoclonal antibody from mouse ascites (antibody, V domains shown)
VH: DTMLQQSDAELVKPGASVKMSCKASGYTFTDHAIHWVKQKPEQGLEWIGYVSPGNGDIKYNEKFKGKATLSADKSSSTAYMQLNSLTSEDSAVYFCKRSYGSFDYWGQGTTLTVSS
VL: QIVLTQSPAIMSSSPGEKVALSCSASSSVSYVYWYQQKPGSSPKPWIYRTSNLASGVPARFSGSGSGTSYSLTISSMEAEDAATYYCQQYHSYPFTFGSGTKLEIKR
notes: Natural mouse IgM used as ascites fluid; also called Ca3638; anti-Tn ascites
binding result [17]: no binding (tested: 1:200 dilution (text paragraph 261))
binding result [18]: no binding (tested: 1:200 dilution (text paragraph 261))
binding result [19]: no binding (tested: 1:200 dilution (text paragraph 261))
binding result [11]: no binding (tested: 1:200 dilution (text paragraph 261))
binding result [12]: no binding (tested: 1:200 dilution (text paragraph 261))
binding result [13]: no binding (tested: 1:200 dilution (text paragraph 261))
binding result [14]: no binding (tested: 1:200 dilution (text paragraph 261))
binding result [15]: no binding (tested: 1:200 dilution (text paragraph 261))

binding result [20]: no binding
binding result [21]: no binding
binding result [22]: no binding
binding result [23]: no binding
binding result [24]: no binding
B4: PNA (other)
chain: AETVSFNFNSFSEGNPAINFQGDVTVLSNGNIQLTNLNKVNSVGRVLYAMPVRIWSSATGNVASFLTSFSFEMKDIKDYDPADGIIFFIAPEDTQIPAGSIGGGTLGVSDTKGAGHFVGVEFDTYSNSEYNDPPTDHVGIDVNSVDSVKTVPWNSVSGAVVKVTVIYDSSTKTLSVAVTNDNGDITTIAQVVDLKAKLPERVKFGFSASGSLGGRQIHLIRSWSFTSTLITTTRRSIDNNEKKIMNMASA
modifications: Biotinylated at unspecified positions. The native lectin is a homotetramer; one subunit is given.
notes: also called biotinylated PNA; Peanut agglutinin
